In PMC3695765:

Target: FLAG-ZO-2 (UniProt Q9UDY2)
Test: GST pull-down from cell lysate
Conditions: reference: GST-OccC not prephosphorylated; sites T400,T404,S408

binding against the reference: weaker
Substance: occludin C-terminal cytoplasmic tail, 263-523 (from UniProt Q16625) GST-OccC prephosphorylated by CK2
